To fix the notation:
B1: Nucleotide exchange factor SIL1 (Homo sapiens), Q9H173 (parent)
chain: MAPQSLPSSRMAPLGMLLGLLMAACFTFCLSHQNLKEFALTNPEKSSTKETERKETKAEEELDAEVLEVFHPTHEWQALQPGQAVPAGSHVRLNLQTGEREAKLQYEDKFRNNLKGKRLDINTNTYTSQDLKSALAKFKEGAEMESSKEDKARQAEVKRLFRPIEELKKDFDELNVVIETDMQIMVRLINKFNSSSSSLEEKIAALFDLEYYVHQMDNAQDLLSFGGLQVVINGLNSTEPLVKEYAAFVLGAAFSSNPKVQVEAIEGGALQKLLVILATEQPLTAKKKVLFALCSLLRHFPYAQRQFLKLGGLQVLRTLVQEKGTEVLAVRVVTLLYDLVTEKMFAEEEAELTQEMSPEKLQQYRQVHLLPGLWEQGWCEITAHLLALPEHDAREKVLQTLGVLLTTCRDRYRQDPQLGRTLASLQAEYQVLASLELQDGEDEGYFQELLGSVNSLLKELR

In this assay the parent is B1. The note with it: with bip_human HSPA5, P11021.
Sequence of bip_human HSPA5, P11021 (P11021 whole entry): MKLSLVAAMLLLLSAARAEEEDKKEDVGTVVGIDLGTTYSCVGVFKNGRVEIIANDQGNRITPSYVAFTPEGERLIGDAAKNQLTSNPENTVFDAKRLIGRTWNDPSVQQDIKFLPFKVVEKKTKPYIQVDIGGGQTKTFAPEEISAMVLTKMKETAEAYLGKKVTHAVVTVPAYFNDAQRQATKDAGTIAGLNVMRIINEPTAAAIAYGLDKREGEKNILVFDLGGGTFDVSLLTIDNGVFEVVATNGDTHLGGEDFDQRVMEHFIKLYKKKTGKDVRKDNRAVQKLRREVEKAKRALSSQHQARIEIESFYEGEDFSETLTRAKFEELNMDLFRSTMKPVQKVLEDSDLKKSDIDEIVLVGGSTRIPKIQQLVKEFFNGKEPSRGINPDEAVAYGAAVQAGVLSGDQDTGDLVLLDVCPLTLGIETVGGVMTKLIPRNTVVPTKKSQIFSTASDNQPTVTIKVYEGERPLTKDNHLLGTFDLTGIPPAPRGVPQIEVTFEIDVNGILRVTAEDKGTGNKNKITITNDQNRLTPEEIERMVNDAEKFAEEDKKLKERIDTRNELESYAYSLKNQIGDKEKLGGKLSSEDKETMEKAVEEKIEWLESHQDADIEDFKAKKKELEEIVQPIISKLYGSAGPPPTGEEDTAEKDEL
Take MAPQSLPSSRMAPLGMLLGLLMAACFTFCLSHQNLKEFALTNPEKSSTKETERKETKAEEELDAEVLEVFHPTHEWQALQPGQAVPAGSHVRLNLQTGEREAKLQYEDKFRNNLKGKRLDINTNTYTSQDLKSALAKFKEGAEMESSKEDKARQAEVKRLFRPIEELKKDFDELNVVIETDMQIMVRLINKFNSSSSSLEEKIAALFDLEYYVHQMDNAQDLLSFGGLQVVINGLNSTEPLVKEYAAFVLGAAFSSNPKVQVEAIEGGALQKLLVILATEQPLTAKKKVLFALCSLLRHFPYAQRQFLKLGGLQVLRTLVQEKGTEVLAVRVVTLLYDLVTEKMFAEEEAELTQEMSPEKLQQYRQVHLLPGLWEQGWCEITAHLLALPEHDAREKVLQTLGVLLTTCRDRYRQDPQLGRTLASLQAEYQVLASLELQDGEDEGYFQELLGSVNSLPKELR [L457P]: the “effect of a mutation on the interaction” value is reported as “decreasing interaction strength”.

The values are drawn from IntAct's records for PubMed 24473200.
